Measurements: publication PMC11291975, “Chemotherapy-induced acetylation of ACLY by NAT10 promotes its nuclear accumulation and acetyl-CoA production to drive chemoresistance in hepatocellular carcinoma” (Cell Death & Disease, 2024)

Molecular target: T1, GST-ACLY (UniProt P53396 1-1101)
T1 construct: ATP citrate lyase (ACLY), cloned into pGEX-4T1; also called GST-ACLY protein; source: E. coli BL21 (DE3), purified (Glutathione Sepharose 4B)
T1 sequence (looked up): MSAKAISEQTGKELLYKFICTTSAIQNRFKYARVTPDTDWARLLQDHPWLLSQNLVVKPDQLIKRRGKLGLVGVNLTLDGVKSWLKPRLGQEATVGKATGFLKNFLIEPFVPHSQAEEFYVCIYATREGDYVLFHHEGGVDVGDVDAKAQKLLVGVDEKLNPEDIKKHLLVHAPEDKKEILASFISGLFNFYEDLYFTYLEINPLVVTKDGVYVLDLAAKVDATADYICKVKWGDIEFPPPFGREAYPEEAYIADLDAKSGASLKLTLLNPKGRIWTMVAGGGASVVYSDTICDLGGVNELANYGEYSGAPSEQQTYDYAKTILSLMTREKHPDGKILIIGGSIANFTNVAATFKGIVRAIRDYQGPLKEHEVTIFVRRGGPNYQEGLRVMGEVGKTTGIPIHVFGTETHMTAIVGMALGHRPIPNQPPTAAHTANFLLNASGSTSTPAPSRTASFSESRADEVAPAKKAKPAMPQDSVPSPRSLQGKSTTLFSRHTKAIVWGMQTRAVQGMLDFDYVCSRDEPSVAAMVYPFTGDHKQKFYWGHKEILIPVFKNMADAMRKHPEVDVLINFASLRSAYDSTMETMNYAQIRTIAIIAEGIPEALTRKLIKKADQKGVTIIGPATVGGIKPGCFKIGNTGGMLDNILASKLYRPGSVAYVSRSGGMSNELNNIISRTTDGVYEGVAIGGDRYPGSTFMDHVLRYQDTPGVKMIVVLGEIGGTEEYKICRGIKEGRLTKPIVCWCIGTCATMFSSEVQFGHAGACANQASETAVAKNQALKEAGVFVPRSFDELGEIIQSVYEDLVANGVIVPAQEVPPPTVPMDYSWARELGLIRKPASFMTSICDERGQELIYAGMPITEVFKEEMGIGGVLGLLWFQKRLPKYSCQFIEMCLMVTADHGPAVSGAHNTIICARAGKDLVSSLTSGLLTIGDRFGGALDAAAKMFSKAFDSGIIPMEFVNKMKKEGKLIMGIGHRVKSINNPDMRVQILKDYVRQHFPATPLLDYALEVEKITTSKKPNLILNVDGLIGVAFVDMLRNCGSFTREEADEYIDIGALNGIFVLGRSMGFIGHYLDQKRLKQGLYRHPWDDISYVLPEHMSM
Test: pull-down; GST-ACLY or GST-ACLY deletion mutants bound to Glutathione Sepharose 4B, incubated with purified Flag-NAT10; WB with anti-Flag
Conditions: both partners purified

B1: Flag-NAT10-His (natural protein, UniProt Q9H0A0 1-1025, looked up)
chain: MHRKKVDNRIRILIENGVAERQRSLFVVVGDRGKDQVVILHHMLSKATVKARPSVLWCYKKELGFSSHRKKRMRQLQKKIKNGTLNIKQDDPFELFIAATNIRYCYYNETHKILGNTFGMCVLQDFEALTPNLLARTVETVEGGGLVVILLRTMNSLKQLYTVTMDVHSRYRTEAHQDVVGRFNERFILSLASCKKCLVIDDQLNILPISSHVATMEALPPQTPDESLGPSDLELRELKESLQDTQPVGVLVDCCKTLDQAKAVLKFIEGISEKTLRSTVALTAARGRGKSAALGLAIAGAVAFGYSNIFVTSPSPDNLHTLFEFVFKGFDALQYQEHLDYEIIQSLNPEFNKAVIRVNVFREHRQTIQYIHPADAVKLGQAELVVIDEAAAIPLPLVKSLLGPYLVFMASTINGYEGTGRSLSLKLIQQLRQQSAQSQVSTTAENKTTTTARLASARTLYEVSLQESIRYAPGDAVEKWLNDLLCLDCLNITRIVSGCPLPEACELYYVNRDTLFCYHKASEVFLQRLMALYVASHYKNSPNDLQMLSDAPAHHLFCLLPPVPPTQNALPEVLAVIQVCLEGEISRQSILNSLSRGKKASGDLIPWTVSEQFQDPDFGGLSGGRVVRIAVHPDYQGMGYGSRALQLLQMYYEGRFPCLEEKVLETPQEIHTVSSEAVSLLEEVITPRKDLPPLLLKLNERPAERLDYLGVSYGLTPRLLKFWKRAGFVPVYLRQTPNDLTGEHSCIMLKTLTDEDEADQGGWLAAFWKDFRRRFLALLSYQFSTFSPSLALNIIQNRNMGKPAQPALSREELEALFLPYDLKRLEMYSRNMVDYHLIMDMIPAISRIYFLNQLGDLALSAAQSALLLGIGLQHKSVDQLEKEIELPSGQLMGLFNRIIRKVVKLFNEVQEKAIEEQMVAAKDVVMEPTMKTLSDDLDEAAKEFQEKHKKEVGKLKSMDLSEYIIRGDDEEWNEVLNKAGPNASIISLKSDKKRKLEAKQEPKQSKKLKNRETKNKKDMKLKRKK
notes: N-acetyltransferase 10 (NAT10), cloned into pFast-Bac1 as Flag-NAT10-His; also called purified Flag-NAT10; source: baculovirus-infected sf9 cells, purified (Ni-NTA agarose)
  binding result: binds
